Literature values in article PMC8808565 (iScience, 2022).

Test system: ACE2

B1: human defensin 5 (protein, UniProt Q01523 20-94, looked up)
Defensin alpha 5: ESLQERADEATTQKQSGEDNQDLAISFAGNGLSALRTSGSQARATCYCRTGRCATRESLSGVCEISGRLYRLCCR
modifications: Defensin-5
- target (in words): target ACE2
